T1: H6-Mcm10 full length (FL), recombinant (human, UniProt Q7L590-2 1-874)
T1 sequence (looked up): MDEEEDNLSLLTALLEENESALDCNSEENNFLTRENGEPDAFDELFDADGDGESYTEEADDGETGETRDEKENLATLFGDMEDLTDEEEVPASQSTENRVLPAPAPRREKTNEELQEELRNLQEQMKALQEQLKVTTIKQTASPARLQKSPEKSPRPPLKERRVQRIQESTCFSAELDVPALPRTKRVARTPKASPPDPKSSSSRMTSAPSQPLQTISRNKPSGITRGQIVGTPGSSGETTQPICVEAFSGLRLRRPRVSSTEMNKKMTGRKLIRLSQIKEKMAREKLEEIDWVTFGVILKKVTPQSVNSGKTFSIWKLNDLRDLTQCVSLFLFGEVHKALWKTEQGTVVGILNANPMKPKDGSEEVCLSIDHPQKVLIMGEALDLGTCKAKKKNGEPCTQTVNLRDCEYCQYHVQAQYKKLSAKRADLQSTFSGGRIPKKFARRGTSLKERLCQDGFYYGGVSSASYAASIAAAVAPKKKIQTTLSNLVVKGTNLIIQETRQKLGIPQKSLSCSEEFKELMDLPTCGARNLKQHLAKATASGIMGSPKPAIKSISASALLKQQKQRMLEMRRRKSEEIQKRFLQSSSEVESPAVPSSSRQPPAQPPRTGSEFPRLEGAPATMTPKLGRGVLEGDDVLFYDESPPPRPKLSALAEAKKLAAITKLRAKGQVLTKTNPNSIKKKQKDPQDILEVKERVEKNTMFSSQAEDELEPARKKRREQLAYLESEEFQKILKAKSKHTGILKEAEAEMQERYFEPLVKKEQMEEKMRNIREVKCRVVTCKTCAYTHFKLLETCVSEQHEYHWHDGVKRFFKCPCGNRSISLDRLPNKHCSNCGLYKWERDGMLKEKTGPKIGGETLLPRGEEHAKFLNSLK

B1: GST-SIRT1 (enzyme, human, UniProt Q96EB6 1-747, looked up)
chain: MADEAALALQPGGSPSAAGADREAASSPAGEPLRKRPRRDGPGLERSPGEPGGAAPEREVPAAARGCPGAAAAALWREAEAEAAAAGGEQEAQATAAAGEGDNGPGLQGPSREPPLADNLYDEDDDDEGEEEEEAAAAAIGYRDNLLFGDEIITNGFHSCESDEEDRASHASSSDWTPRPRIGPYTFVQQHLMIGTDPRTILKDLLPETIPPPELDDMTLWQIVINILSEPPKRKKRKDINTIEDAVKLLQECKKIIVLTGAGVSVSCGIPDFRSRDGIYARLAVDFPDLPDPQAMFDIEYFRKDPRPFFKFAKEIYPGQFQPSLCHKFIALSDKEGKLLRNYTQNIDTLEQVAGIQRIIQCHGSFATASCLICKYKVDCEAVRGDIFNQVVPRCPRCPADEPLAIMKPEIVFFGENLPEQFHRAMKYDKDEVDLLIVIGSSLKVRPVALIPSSIPHEVPQILINREPLPHLHFDVELLGDCDVIINELCHRLGGEYAKLCCNPVKLSEITEKPPRTQKELAYLSELPPTPLHVSEDSSSPERTSPPDSSVIVTLLDQAAKSNDDLDVSESKGCMEEKPQEVQTSRNVESIAEQMENPDLKNVGSSTGEKNERTSVAGTVRKCWPNRVAKEQISRRLDGNQYLFLPPNRYIFHGAEVYSDSEDDVLSSSSCGSNSDSGTCQSPSLEEPMEDESEIEEFYNGLEDEPDVPERAGGAGFGTDGDDQEAINEAISVKQEVTDMNYPSNKS

How the values were obtained:
[1] = biological target: T1, H6-Mcm10 full length (FL), recombinant; assay: pull-down
GST-SIRT1 = biological target: B1; assay: pull-down

Row | Binder | binding result [1] | binding result (GST-SIRT1)
1 | B1 | binds | –
2 | His-tagged Mcm10 C-terminal domain (CTD, aa 630-874) (domain or fragment, human, UniProt Q7L590-2 630-874, looked up) GVLEGDDVLFYDESPPPRPKLSALAEAKKLAAITKLRAKGQVLTKTNPNSIKKKQKDPQDILEVKERVEKNTMFSSQAEDELEPARKKRREQLAYLESEEFQKILKAKSKHTGILKEAEAEMQERYFEPLVKKEQMEEKMRNIREVKCRVVTCKTCAYTHFKLLETCVSEQHEYHWHDGVKRFFKCPCGNRSISLDRLPNKHCSNCGLYKWERDGMLKEKTGPKIGGETLLPRGEEHAKFLNSLK | – | binds
